Experimental data from patent publication US20230125301A1 (published 2023).
Positions count from the first letter of the chain named. Where two headings read alike, the source gives them in different places.

How the values were obtained:
Test in all cases: FACS binding, CHO-K1 cells
human PD-L1 [1] = target: T1, human PD-L1 (human, UniProt Q9NZQ7 19-290)
human PD-L1 [2] = target: T1, human PD-L1; remark: listed apart in the source
human PD-L1 [3] = target: T1, human PD-L1; remark: listed apart in the source

T1 sequence (Q9NZQ7 19-290): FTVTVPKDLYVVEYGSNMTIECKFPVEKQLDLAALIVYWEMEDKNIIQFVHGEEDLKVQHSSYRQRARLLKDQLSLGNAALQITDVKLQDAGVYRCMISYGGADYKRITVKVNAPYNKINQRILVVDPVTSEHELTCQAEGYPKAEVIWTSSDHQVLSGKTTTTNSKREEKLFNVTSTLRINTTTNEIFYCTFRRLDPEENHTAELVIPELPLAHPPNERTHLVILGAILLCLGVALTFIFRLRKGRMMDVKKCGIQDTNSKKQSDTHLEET

B1: CLDN18L-E-pdl1a (bispecific antibody)
heavy: not shown
light: DIVMTQSPLSLPVTPGEPASISCKSSQTLLNSGNQKNYLTWYLQKPGQSPQLLIYWASTGESGVPDRFSGSGSGTDFTLKISRVEAEDVGVYYCQNAYFYPFTFGGGTKVEIKRTVAAPSVFIFPPSDEQLKSGTASVVCLLNNFYPREAKVQWKVDNALQSGNSQESVTEQDSKDSTYSLSSTLTLSKADYEKHKVYACEVTHQGLSSPVTKSFNRGECEPKSSDKTHTSPPSPEVQLVESGGGLVQPGGSLRLSCAASGRTFVTYGMGWFRQAPGKGREFVSAISWSGSMTSYGDSVKGRFTISRDNAKNTLYLQMNSLRPEDTAVYYCAAALGAVVYTTREPYTYWGQGTLVTVSS
Which results are given for B1?
EC50 (human PD-L1 [1]): 0.215 nM; EC50 (human PD-L1 [2]): 0.34 nM; EC50 (human PD-L1 [3]): 0.262 nM

B2: CLDN18L-G9-pdl1a (bispecific antibody)
heavy: not shown
light: DIVMTQSPLSLPVTPGEPASISCKSSQTLLNSGNQKNYLTWYLQKPGQSPQLLIYWASTGESGVPDRFSGSGSGTDFTLKISRVEAEDVGVYYCQNAYFYPFTFGGGTKVEIKRTVAAPSVFIFPPSDEQLKSGTASVVCLLNNFYPREAKVQWKVDNALQSGNSQESVTEQDSKDSTYSLSSTLTLSKADYEKHKVYACEVTHQGLSSPVTKSFNRGECGGGGSGGGSEVQLVESGGGLVQPGGSLRLSCAASGRTFVTYGMGWFRQAPGKGREFVSAISWSGSMTSYGDSVKGRFTISRDNAKNTLYLQMNSLRPEDTAVYYCAAALGAVVYTTREPYTYWGQGTLVTVSS
B2 was tested. Which EC50 (human PD-L1 [1]) did it give?
The EC50 was 0.418 nM.

What about the EC50 (human PD-L1 [2]) of the same binder?
The EC50 was 0.591 nM.

B3: CLDN18L-E4-pdl1a (bispecific antibody)
heavy: not shown
light: DIVMTQSPLSLPVTPGEPASISCKSSQTLLNSGNQKNYLTWYLQKPGQSPQLLIYWASTGESGVPDRFSGSGSGTDFTLKISRVEAEDVGVYYCQNAYFYPFTFGGGTKVEIKRTVAAPSVFIFPPSDEQLKSGTASVVCLLNNFYPREAKVQWKVDNALQSGNSQESVTEQDSKDSTYSLSSTLTLSKADYEKHKVYACEVTHQGLSSPVTKSFNRGECESKYGPPSPPSPEVQLVESGGGLVQPGGSLRLSCAASGRTFVTYGMGWFRQAPGKGREFVSAISWSGSMTSYGDSVKGRFTISRDNAKNTLYLQMNSLRPEDTAVYYCAAALGAVVYTTREPYTYWGQGTLVTVSS
For B3, which EC50 (human PD-L1 [2]) is on record?
The EC50 was 0.424 nM.

B4: CLDN18L-E4a-pdl1a (bispecific antibody)
heavy: not shown
light: B3 light with S228G, S231G
With B4 as the binder, how does the EC50 (human PD-L1 [2]) read?
The EC50 was 0.452 nM.
